Laboratory results as given in publication PMC4593522, “Development of a Radiolabeled Peptide-Based Probe Targeting MT1-MMP for Breast Cancer Detection” (PLoS ONE, 2015).
Where two headings read alike, the source gives them in different places. Square brackets hold non-standard residues; d marks the D form. Peptide text beside a SMILES is read from it. * marks the point of attachment. HYNIC = NNc1ccc(C(=O)*)cn1; AEEA = NCCOCCOCC(=O)O

Assay: In vivo biodistribution study (ex vivo organ counting)
Parameters: species or system mice
Conditions: female, mouse, iv, total radioactivity, mean ± SD, n = 3; for tissue to tissue ratio at 0.5 h: 0.5h after i.v.; for tissue to tissue ratio at 1 h: 1h after i.v.
Procedure: All animal experiments were approved by Jilin University Health Science Center Animal Care and Use Committee. Human breast carcinoma cell line MDA-MB-231 with high MT1-MMP expression and human lung adenocarcinomaepithelial cell line A549 with low MT1-MMP expression were cultured in DMEM medium containing 10% (v/v) fetal bovine serum (Invitrogen) supplemented with penicillin (100 μg/mL) and streptomycin (100 μg/mL) at 37°C with 5% CO2. MDA-MB-231 and A549 tumor models were established by subcutaneous injection of 5×10^6 cells into the upper right front flank of female athymic nude mice (Department of Experimental Animal, Peking University Health Science Center). Tumor growth was monitored by caliper measurements three times a week after the tumors are palpable. The mice were used for SPET/CT imaging when the tumor volume reached about 200 mm3 (about 14 days after tumor inoculations). The tumor volume was determined as the formula: V = a × (b^2)/2, where a and b are the length and width of each tumor in mm respectively. During the injection and image acquisition process, the mice were anesthetized with 2.5% isoflurane in oxygen delivered at a flow rate of 1.5 L/min.
Animals were divided into 4 groups (n = 3) for 4 time points with approximately equal distribution of tumor sizes on the day before the study. At 0.5, 1, 2, and 4 h after intravenous administration of [^99mTc]-(HYNIC-AF7P)(tricine)(TPPTS), MDA-MB-231 tumor bearing mice were euthanized. […] The organ uptake was calculated as a percentage of the injected dose per gram of wet tissue (%ID/g).

[1] = athymic nude, tumor and intestine, read-out: Tumor/Intestine ratio
[2] = athymic nude, tumor and pancreas, read-out: Tumor/Pancreas ratio
[3] = athymic nude, tumor/blood, read-out: Tumor/Blood ratio
[4] = athymic nude, tumor/bone, read-out: Tumor/Bone ratio
[5] = athymic nude, tumor/heart, read-out: Tumor/Heart ratio
[6] = athymic nude, tumor/kidney, read-out: Tumor/Kidney ratio
[7] = athymic nude, tumor/liver, read-out: Tumor/Liver ratio
[8] = athymic nude, tumor/lung, read-out: Tumor/Lung ratio
[9] = athymic nude, tumor/muscle, read-out: Tumor/Muscle ratio
[10] = athymic nude, tumor/spleen, read-out: Tumor/Spleen ratio

SMILES: CC(C)C[C@H](NC(=O)[C@H](Cc1ccccc1)NC(=O)[C@@H](NC(=O)[C@H](CCCCN)NC(=O)[C@@H](NC(=O)[C@H](CC(N)=O)NC(=O)[C@H](Cc1c[nH]cn1)NC(=O)[C@H](CC(C)C)NC(=O)[C@H](Cc1c[nH]cn1)NC(=O)[C@H](CCCCN)NC(=O)[C@H](Cc1c[nH]c2ccccc12)NC(=O)[C@H](Cc1c[nH]cn1)NC(=O)c1ccc(NN)nc1)[C@@H](C)O)[C@@H](C)O)C(=O)NCCOCCOCC(=O)O [[^99mTc]-(HYNIC-AF7P)(tricine)(TPPTS), metal not drawn] ({HYNIC}-HWKHLHNTKTFL[AEEA]-OH)
- tissue uptake at 2 h (athymic nude, pancreas, 2h after i.v., read-out: Pancreas uptake): 0.35 ± 0.04 %ID/g
- tissue uptake at 4 h (athymic nude, pancreas, 4h after i.v., read-out: Pancreas uptake): 0.19 ± 0.02 %ID/g
- tissue to tissue ratio at 0.5 h [1]: 1.76 ± 0.1
- tissue to tissue ratio at 1 h [1]: 1.61 ± 0.17
- tissue to tissue ratio at 2 h (athymic nude, tumor and intestine, 2h after i.v., read-out: Tumor/Intestine ratio): 1.44 ± 0.13
- tissue to tissue ratio at 4 h (athymic nude, tumor and intestine, 4h after i.v., read-out: Tumor/Intestine ratio): 0.93 ± 0.12
- tissue to tissue ratio at 4 h (athymic nude, tumor and liver, 4h after i.v., read-out: Tumor/Liver ratio): 0.41 ± 0.04
- tissue to tissue ratio at 0.5 h [2]: 4.4 ± 0.43
- tissue to tissue ratio at 1 h [2]: 4.98 ± 0.16
- tissue to tissue ratio at 2 h (athymic nude, tumor and pancreas, 2h after i.v., read-out: Tumor/Pancreas ratio): 6.28 ± 0.7
- tissue to tissue ratio at 4 h (athymic nude, tumor and pancreas, 4h after i.v., read-out: Tumor/Pancreas ratio): 5.67 ± 0.82
- tissue to tissue ratio at 0.5 h [3]: 9.27 ± 0.28
- tissue to tissue ratio at 1 h [3]: 9.36 ± 0.73
- tissue to tissue ratio at 2 h (athymic nude, tumor/blood, 2h after i.v., read-out: Tumor/Blood ratio): 11.1 ± 0.74
- tissue to tissue ratio at 4 h (athymic nude, tumor/blood, 4h after i.v., read-out: Tumor/Blood ratio): 5.54 ± 0.55
- tissue to tissue ratio at 0.5 h [4]: 4.21 ± 0.2
- tissue to tissue ratio at 1 h [4]: 4.5 ± 0.51
- tissue to tissue ratio at 2 h (athymic nude, tumor/bone, 2h after i.v., read-out: Tumor/Bone ratio): 5.01 ± 0.38
- tissue to tissue ratio at 4 h (athymic nude, tumor/bone, 4h after i.v., read-out: Tumor/Bone ratio): 2.6 ± 0.15
- tissue to tissue ratio at 0.5 h [5]: 1.49 ± 0.23
- tissue to tissue ratio at 1 h [5]: 1.56 ± 0.26
- tissue to tissue ratio at 2 h (athymic nude, tumor/heart, 2h after i.v., read-out: Tumor/Heart ratio): 2.23 ± 0.2
- tissue to tissue ratio at 4 h (athymic nude, tumor/heart, 4h after i.v., read-out: Tumor/Heart ratio): 1.66 ± 0.21
- tissue to tissue ratio at 0.5 h [6]: 0.38 ± 0.01
- tissue to tissue ratio at 1 h [6]: 0.35 ± 0.01
- tissue to tissue ratio at 2 h (athymic nude, tumor/kidney, 2h after i.v., read-out: Tumor/Kidney ratio): 0.45 ± 0.04
- tissue to tissue ratio at 4 h (athymic nude, tumor/kidney, 4h after i.v., read-out: Tumor/Kidney ratio): 0.24 ± 0.02
- tissue to tissue ratio at 0.5 h [7]: 0.65 ± 0.06
- tissue to tissue ratio at 1 h [7]: 0.67 ± 0.07
- tissue to tissue ratio at 2 h (athymic nude, tumor/liver, 2h after i.v., read-out: Tumor/Liver ratio): 0.75 ± 0.05
- tissue to tissue ratio at 0.5 h [8]: 1.6 ± 0.18
- tissue to tissue ratio at 1 h [8]: 1.81 ± 0.34
- tissue to tissue ratio at 2 h (athymic nude, tumor/lung, 2h after i.v., read-out: Tumor/Lung ratio): 2.17 ± 0.14
- tissue to tissue ratio at 4 h (athymic nude, tumor/lung, 4h after i.v., read-out: Tumor/Lung ratio): 1.51 ± 0.3
- tissue to tissue ratio at 0.5 h [9]: 3.77 ± 0.42
- tissue to tissue ratio at 1 h [9]: 3.86 ± 0.75
- tissue to tissue ratio at 2 h (athymic nude, tumor/muscle, 2h after i.v., read-out: Tumor/Muscle ratio): 4.17 ± 0.49
- tissue to tissue ratio at 4 h (athymic nude, tumor/muscle, 4h after i.v., read-out: Tumor/Muscle ratio): 2.02 ± 0.09
- tissue to tissue ratio at 0.5 h [10]: 3.75 ± 0.46
- tissue to tissue ratio at 1 h [10]: 3.66 ± 0.58
- tissue to tissue ratio at 2 h (athymic nude, tumor/spleen, 2h after i.v., read-out: Tumor/Spleen ratio): 3.94 ± 0.57
- tissue uptake at 0.5 h (tumor, 0.5 h after i.v. administration, MDA-MB-231 xenograft, BALB/c nude mice, read-out: Tumor uptake (biodistribution)): 3.37 ± 0.27 %ID/g
- tissue uptake at 1 h (tumor, 1 h after i.v. administration, MDA-MB-231 xenograft, BALB/c nude mice, read-out: Tumor uptake (biodistribution)): 2.59 ± 0.21 %ID/g
- tissue uptake at 2 h (tumor, 2 h after i.v. administration, MDA-MB-231 xenograft, BALB/c nude mice, read-out: Tumor uptake (biodistribution)): 2.18 ± 0.11 %ID/g
- tissue uptake at 4 h (tumor, 4 h after i.v. administration, MDA-MB-231 xenograft, BALB/c nude mice, read-out: Tumor uptake (biodistribution)): 1.05 ± 0.07 %ID/g
